Measured values from patent US20220010021A1 (Sanofi, published 2022).
Residue numbers refer to the chain shown, from its start.

B1: 16H7 variant, light chain I27D (antibody, human IgG4 S228P, lambda, V domains shown)
VH: not shown
VL: SYVLTQPPSVSVAPGQTARITCGGNNDGSESVHWYQQKPGQAPVLVVYDDSDRPSGIPERFSGSNSGNTATLTISRVEAGDEADYYCQVWDGNSDHVVFGGGTKLTVLG
notes: IgG4 backbone
B2: 16H7 variant, light chain I27E (antibody, human IgG4 S228P, lambda, V domains shown)
VH: not shown
VL: B1 VL with D27E
notes: IgG4 backbone
B3: 16H7 variant, light chain I27G (antibody, IgG4, V domains shown)
VH: not shown
VL: B1 VL with D27G
notes: IgG4 backbone; copies: 2 + 2
B4: 16H7 variant, light chain I27K (antibody, IgG4, V domains shown)
VH: not shown
VL: B1 VL with D27K
notes: IgG4 backbone; copies: 2 + 2
B5: 16H7 variant, light chain I27L (antibody, IgG4, V domains shown)
VH: not shown
VL: B1 VL with D27L
notes: IgG4 backbone; copies: 2 + 2
B6: 16H7 variant, light chain I27S (antibody, human IgG4 S228P, lambda, V domains shown)
VH: not shown
VL: B1 VL with D27S
notes: IgG4 backbone
B7: 16H7 variant, light chain N25A (antibody, human IgG4 S228P, lambda, V domains shown)
VH: not shown
VL: B1 VL with N25A, D27I
notes: IgG4 backbone
B8: 16H7 variant, light chain N25C (antibody, human IgG4 S228P, lambda, V domains shown)
VH: not shown
VL: B1 VL with N25C, D27I
notes: IgG4 backbone
B9: 16H7 variant, light chain N25E (antibody, human IgG4 S228P, lambda, V domains shown)
VH: not shown
VL: B1 VL with N25E, D27I
notes: IgG4 backbone
B10: 16H7 variant, light chain N25G (antibody, human IgG4 S228P, lambda, V domains shown)
VH: not shown
VL: B1 VL with N25G, D27I
notes: IgG4 backbone
B11: 16H7 variant, light chain N25H (antibody, human IgG4 S228P, lambda, V domains shown)
VH: not shown
VL: B1 VL with N25H, D27I
notes: IgG4 backbone
B12: 16H7 variant, light chain N25I (antibody, human IgG4 S228P, lambda, V domains shown)
VH: not shown
VL: B1 VL with N25I, D27I
notes: IgG4 backbone
B13: 16H7 variant, light chain N25K (antibody, human IgG4 S228P, lambda, V domains shown)
VH: not shown
VL: B1 VL with N25K, D27I
notes: IgG4 backbone
B14: 16H7 variant, light chain N25L (antibody, human IgG4 S228P, lambda, V domains shown)
VH: not shown
VL: B1 VL with N25L, D27I
notes: IgG4 backbone
B15: 16H7 variant, light chain N25M (antibody, human IgG4 S228P, lambda, V domains shown)
VH: not shown
VL: B1 VL with N25M, D27I
notes: IgG4 backbone
B16: 16H7 variant, light chain N25P (antibody, human IgG4 S228P, lambda, V domains shown)
VH: not shown
VL: B1 VL with N25P, D27I
notes: IgG4 backbone
B17: 16H7 variant, light chain N25Q (antibody, human IgG4 S228P, lambda, V domains shown)
VH: not shown
VL: B1 VL with N25Q, D27I
notes: IgG4 backbone
B18: 16H7 variant, light chain N25R (antibody, human IgG4 S228P, lambda, V domains shown)
VH: not shown
VL: B1 VL with N25R, D27I
notes: IgG4 backbone
B19: 16H7 variant, light chain N25S (antibody, human IgG4 S228P, lambda, V domains shown)
VH: not shown
VL: B1 VL with N25S, D27I
notes: IgG4 backbone
B20: 16H7 variant, light chain N25T (antibody, human IgG4 S228P, lambda, V domains shown)
VH: not shown
VL: B1 VL with N25T, D27I
notes: IgG4 backbone
B21: 16H7 variant, light chain N25V (antibody, human IgG4 S228P, lambda, V domains shown)
VH: not shown
VL: B1 VL with N25V, D27I
notes: IgG4 backbone
B22: 16H7 variant, light chain N25W (antibody, human IgG4 S228P, lambda, V domains shown)
VH: not shown
VL: B1 VL with N25W, D27I
notes: IgG4 backbone
B23: 16H7 variant, light chain N25Y (antibody, human IgG4 S228P, lambda, V domains shown)
VH: not shown
VL: B1 VL with N25Y, D27I
notes: IgG4 backbone
B24: 16H7 variant, light chain N26A (antibody, human IgG4 S228P, lambda, V domains shown)
VH: not shown
VL: B1 VL with N26A, D27I
notes: IgG4 backbone
B25: 16H7 variant, light chain N26C (antibody, IgG4, V domains shown)
VH: not shown
VL: B1 VL with N26C, D27I
notes: IgG4 backbone; copies: 2 + 2
B26: 16H7 variant, light chain N26D (antibody, IgG4, V domains shown)
VH: not shown
VL: B1 VL with N26D, D27I
notes: IgG4 backbone; copies: 2 + 2
B27: 16H7 variant, light chain N26E (antibody, human IgG4 S228P, lambda, V domains shown)
VH: not shown
VL: B1 VL with N26E, D27I
notes: IgG4 backbone
B28: 16H7 variant, light chain N26F (antibody, human IgG4 S228P, lambda, V domains shown)
VH: not shown
VL: B1 VL with N26F, D27I
notes: IgG4 backbone
B29: 16H7 variant, light chain N26G (antibody, human IgG4 S228P, lambda, V domains shown)
VH: not shown
VL: B1 VL with N26G, D27I
notes: IgG4 backbone
B30: 16H7 variant, light chain N26H (antibody, human IgG4 S228P, lambda, V domains shown)
VH: not shown
VL: B1 VL with N26H, D27I
notes: IgG4 backbone
B31: 16H7 variant, light chain N26I (antibody, IgG4, V domains shown)
VH: not shown
VL: B1 VL with N26I, D27I
notes: IgG4 backbone; copies: 2 + 2
B32: 16H7 variant, light chain N26K (antibody, human IgG4 S228P, lambda, V domains shown)
VH: not shown
VL: B1 VL with N26K, D27I
notes: IgG4 backbone
B33: 16H7 variant, light chain N26L (antibody, human IgG4 S228P, lambda, V domains shown)
VH: not shown
VL: B1 VL with N26L, D27I
notes: IgG4 backbone
B34: 16H7 variant, light chain N26M (antibody, human IgG4 S228P, lambda, V domains shown)
VH: not shown
VL: B1 VL with N26M, D27I
notes: IgG4 backbone
B35: 16H7 variant, light chain N26P (antibody, human IgG4 S228P, lambda, V domains shown)
VH: not shown
VL: B1 VL with N26P, D27I
notes: IgG4 backbone
B36: 16H7 variant, light chain N26Q (antibody, IgG4, V domains shown)
VH: not shown
VL: B1 VL with N26Q, D27I
notes: IgG4 backbone; copies: 2 + 2
B37: 16H7 variant, light chain N26R (antibody, human IgG4 S228P, lambda, V domains shown)
VH: not shown
VL: B1 VL with N26R, D27I
notes: IgG4 backbone
B38: 16H7 variant, light chain N26S (antibody, IgG4, V domains shown)
VH: not shown
VL: B1 VL with N26S, D27I
notes: IgG4 backbone; copies: 2 + 2
B39: 16H7 variant, light chain N26V (antibody, human IgG4 S228P, lambda, V domains shown)
VH: not shown
VL: B1 VL with N26V, D27I
notes: IgG4 backbone

What was measured:
human beta-Klotho (KLB) = target: T1, human beta-Klotho (KLB) (human, UniProt Q86Z14 53-997); test: BLI off-rate screen (Octet), Ab captured via Fc;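 note: antibody supernatants applied at 25 µg/mL, dissociation monitored over 1800 s in D-PBS with 0.1% BSA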
T1 construct: also called human KLB
T1 sequence (looked up): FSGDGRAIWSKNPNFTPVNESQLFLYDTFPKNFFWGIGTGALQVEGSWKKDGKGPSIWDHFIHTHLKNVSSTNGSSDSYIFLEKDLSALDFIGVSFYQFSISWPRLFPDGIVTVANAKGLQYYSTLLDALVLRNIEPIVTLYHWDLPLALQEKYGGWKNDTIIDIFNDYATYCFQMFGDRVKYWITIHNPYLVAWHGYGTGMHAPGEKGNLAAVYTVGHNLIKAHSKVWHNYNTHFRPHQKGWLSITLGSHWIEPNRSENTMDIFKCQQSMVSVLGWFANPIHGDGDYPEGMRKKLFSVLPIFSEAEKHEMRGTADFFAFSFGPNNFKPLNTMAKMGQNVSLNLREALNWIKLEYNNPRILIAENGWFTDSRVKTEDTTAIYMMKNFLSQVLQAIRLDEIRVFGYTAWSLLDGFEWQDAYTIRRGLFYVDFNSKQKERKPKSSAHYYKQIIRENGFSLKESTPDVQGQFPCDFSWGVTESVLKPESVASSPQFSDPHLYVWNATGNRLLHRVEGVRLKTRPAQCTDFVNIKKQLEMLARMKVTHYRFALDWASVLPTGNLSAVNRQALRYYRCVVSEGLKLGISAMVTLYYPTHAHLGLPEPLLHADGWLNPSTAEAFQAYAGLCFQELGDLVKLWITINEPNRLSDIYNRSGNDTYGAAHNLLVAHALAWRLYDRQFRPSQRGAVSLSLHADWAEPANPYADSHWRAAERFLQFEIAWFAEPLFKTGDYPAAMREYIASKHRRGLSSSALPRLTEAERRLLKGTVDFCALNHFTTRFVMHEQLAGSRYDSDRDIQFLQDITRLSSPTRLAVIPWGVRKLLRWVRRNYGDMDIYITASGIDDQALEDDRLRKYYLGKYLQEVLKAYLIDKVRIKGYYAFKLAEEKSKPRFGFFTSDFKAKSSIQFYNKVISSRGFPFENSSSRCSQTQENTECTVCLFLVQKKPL

[1] = target: human FGFR1c/KLB cell surface receptor complex on iLite FGF21 reporter cells (human, UniProt P11362 22-822; Q86Z14 1-1044); test: cell-based or functional assay; for Mean E max (%): reference of the scale not given here
human FGFR1c/KLB cell surface receptor complex on iLite FGF21 reporter cells, sequence (P11362 22-822, chain 1 of 2): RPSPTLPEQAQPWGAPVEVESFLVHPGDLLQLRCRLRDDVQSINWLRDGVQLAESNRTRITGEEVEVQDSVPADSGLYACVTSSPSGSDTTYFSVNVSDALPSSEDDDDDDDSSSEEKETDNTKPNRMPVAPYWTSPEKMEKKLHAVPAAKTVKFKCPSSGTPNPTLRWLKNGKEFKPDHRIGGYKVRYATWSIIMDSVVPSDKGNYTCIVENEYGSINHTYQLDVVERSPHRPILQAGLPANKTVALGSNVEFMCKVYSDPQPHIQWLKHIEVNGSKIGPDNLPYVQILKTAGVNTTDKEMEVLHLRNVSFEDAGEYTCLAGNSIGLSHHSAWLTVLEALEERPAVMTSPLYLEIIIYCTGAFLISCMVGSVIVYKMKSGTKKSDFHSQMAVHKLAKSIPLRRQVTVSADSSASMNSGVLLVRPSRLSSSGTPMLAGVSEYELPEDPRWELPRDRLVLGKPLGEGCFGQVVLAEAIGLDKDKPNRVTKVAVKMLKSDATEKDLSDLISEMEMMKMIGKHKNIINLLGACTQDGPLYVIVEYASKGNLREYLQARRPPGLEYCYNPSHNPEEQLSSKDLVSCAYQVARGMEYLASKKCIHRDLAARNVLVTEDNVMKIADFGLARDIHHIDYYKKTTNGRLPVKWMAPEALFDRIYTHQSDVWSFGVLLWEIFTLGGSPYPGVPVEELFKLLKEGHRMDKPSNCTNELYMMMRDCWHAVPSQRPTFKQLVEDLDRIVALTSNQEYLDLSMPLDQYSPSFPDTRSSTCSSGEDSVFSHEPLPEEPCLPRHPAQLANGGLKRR
human FGFR1c/KLB cell surface receptor complex on iLite FGF21 reporter cells, sequence (Q86Z14 whole entry, chain 2 of 2): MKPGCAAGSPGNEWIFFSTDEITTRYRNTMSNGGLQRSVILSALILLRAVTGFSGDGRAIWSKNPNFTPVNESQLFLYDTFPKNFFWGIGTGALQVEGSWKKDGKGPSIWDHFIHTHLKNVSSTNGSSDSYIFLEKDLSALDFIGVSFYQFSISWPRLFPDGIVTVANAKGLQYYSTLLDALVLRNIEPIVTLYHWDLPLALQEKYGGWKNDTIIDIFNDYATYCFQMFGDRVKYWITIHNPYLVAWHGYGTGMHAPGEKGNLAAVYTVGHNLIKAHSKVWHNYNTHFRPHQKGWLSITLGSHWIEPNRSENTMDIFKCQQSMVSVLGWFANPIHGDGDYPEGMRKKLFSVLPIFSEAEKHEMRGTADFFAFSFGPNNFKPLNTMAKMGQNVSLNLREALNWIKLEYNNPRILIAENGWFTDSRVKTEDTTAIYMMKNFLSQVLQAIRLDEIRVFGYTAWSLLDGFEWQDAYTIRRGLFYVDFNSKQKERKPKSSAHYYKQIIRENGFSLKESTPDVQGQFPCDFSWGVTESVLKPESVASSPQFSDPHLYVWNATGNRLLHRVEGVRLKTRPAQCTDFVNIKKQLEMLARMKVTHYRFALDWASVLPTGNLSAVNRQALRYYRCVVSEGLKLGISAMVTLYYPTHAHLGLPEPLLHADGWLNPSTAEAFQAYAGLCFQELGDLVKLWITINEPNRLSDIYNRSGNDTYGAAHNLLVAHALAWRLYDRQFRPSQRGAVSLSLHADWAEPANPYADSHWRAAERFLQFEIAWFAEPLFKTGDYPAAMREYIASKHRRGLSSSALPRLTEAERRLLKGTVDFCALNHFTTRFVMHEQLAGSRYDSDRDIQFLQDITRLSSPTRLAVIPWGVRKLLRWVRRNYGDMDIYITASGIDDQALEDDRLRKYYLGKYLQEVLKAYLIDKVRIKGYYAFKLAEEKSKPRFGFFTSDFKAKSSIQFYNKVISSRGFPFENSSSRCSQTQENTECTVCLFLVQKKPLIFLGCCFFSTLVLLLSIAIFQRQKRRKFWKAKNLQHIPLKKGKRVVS

| Binder | koff (human beta-Klotho (KLB)) [s⁻¹] | Mean E max (%) [1] [%] | Mean EC50 [1] [pM] |
| --- | --- | --- | --- |
| B1 | 4.6e-05 | 107 | 107 |
| B2 | 4.6e-05 | 98 | 121 |
| B3 | 3e-05 | 111 | 123 |
| B4 | 5.3e-05 | 99 | 127 |
| B5 | 6.2e-05 | 110 | 124 |
| B6 | 4.9e-05 | 106 | 141 |
| B7 | 1.6e-05 | 96 | 81 |
| B8 | 3.6e-06 | 110 | 133 |
| B9 | 3e-05 | 106 | 107 |
| B10 | 3.2e-05 | 100 | 118 |
| B11 | 3e-05 | 106 | 137 |
| B12 | 2.2e-05 | 104 | 122 |
| B13 | 3.3e-05 | 110 | 182 |
| B14 | 1.2e-05 | 109 | 134 |
| B15 | 3.1e-06 | 102 | 131 |
| B16 | 1.2e-05 | 106 | 132 |
| B17 | 1e-07 | 102 | 96 |
| B18 | 4.1e-05 | 104 | 178 |
| B19 | 4.4e-05 | 98 | 131 |
| B20 | 2.3e-05 | 111 | 117 |

| Binder | koff (human beta-Klotho (KLB)) [s⁻¹] | Mean E max (%) [1] [%] | Mean EC50 [1] [pM] |
| --- | --- | --- | --- |
| B21 | 3.2e-05 | 106 | 121 |
| B22 | 1e-07 | 99 | 99 |
| B23 | 3.1e-05 | 104 | 99 |
| B24 | 4.6e-06 | 98 | 106 |
| B25 | 1e-07 | 103 | 146 |
| B26 | 5.6e-05 | 101 | 123 |
| B27 | 7.2e-05 | 106 | 106 |
| B28 | 5.4e-05 | 95 | 158 |
| B29 | 3.7e-05 | 94 | 97 |
| B30 | 3.5e-05 | 112 | 138 |
| B31 | 6.3e-05 | 110 | 113 |
| B32 | 1e-07 | 104 | 143 |
| B33 | 4.4e-05 | 103 | 131 |
| B34 | 2.2e-05 | 111 | 153 |
| B35 | 5.1e-05 | 100 | 99 |
| B36 | 1e-07 | 109 | 119 |
| B37 | 2.5e-05 | 110 | 205 |
| B38 | 1e-07 | 101 | 118 |
| B39 | 3.5e-05 | 106 | 118 |
